B1: scFv; the commonest letter at each place (parent)
chain 1: EVKLDETGGGLVQPGRPMKLSCVASGFTFSDYWMNWVRQSPEKGLEWVAQIRNKPYNYETYYSDSVKGRFTISRDDSKSSVYLQMNNLRVEDMGIYYCTGSYYGMDYWGQGTSVTVS
chain 2: DVVMTQTPLSLPVSLGDQASISCRSSQSLVHSNGNTYLRWYLQKPGQSPKVLIYKVSNRFSGVPDRFSGSGSGTDFTLKISRVEAEDLGVYFCSQSTHVPWTFGGGTKLEIK

Experiments:
fluorescein = variants of: B1; assay: Kd (Tite-Seq); conditions: with fluorescein; format: scFv 4-4-20, heavy + light
[1] = variants of: B1; assay: yeast surface expression (ratio to wild type); higher = more expressed; conditions: format: scFv 4-4-20, heavy + light

| Variant | Kd (fluorescein) | yeast surface expression [1] |
| --- | --- | --- |
| chain 1 EVKLDETGGGLVQPGRPMKLSCVASGFTFSDYWMNWVRQSPEKGLEWVAQIRNKPYNYETYYSDSVKGRFTISRDDSKSSVYLQMNNLRVEDMGIYYCTGSYNGMDYWGQGTSVTVS chain 2 DVVMTQTPLSLPVSLGDQASISCRSSQSLVHSNGNTYLRWYLQKPGQSPKVLIYKVSNRFSGVPDRFSGSGSGTDFTLKISRVEAEDLGVYFCSQSTHVPWTFGGGTKLEIK [chain 1 Y103N] | 0.00708 µM | 1.17 |
| chain 1 EVKLDETGGGLVQPGRPMKLSCVASGFTFSDYWMNWVRQSPEKGLEWVAQIRNKPYNYETYYSDSVKGRFTISRDDSKSSVYLQMNNLRVEDMGIYYCTQSYYGMDYWGQGTSVTVS chain 2 DVVMTQTPLSLPVSLGDQASISCRSSQSLVHSNGNTYLRWYLQKPGQSPKVLIYKVSNRFSGVPDRFSGSGSGTDFTLKISRVEAEDLGVYFCSQSTHVPWTFGGGTKLEIK [chain 1 G100Q] | ≥ 10 µM | 0.476 |
| chain 1 EVKLDETGGGLVQPGRPMKLSCVASGFTFSDYWMNWVRQSPEKGLEWVAQIRNKPYNYETYYSDSVKGRFTISRDDSKSSVYLQMNNLRVEDMGIYYCTGSYYGADYWFQGTSVTVS chain 2 DVVMTQTPLSLPVSLGDQASISCRSSQSLVHSNGNTYLRWYLQKPGQSPKVLIYKVSNRFSGVPDRFSGSGSGTDFTLKISRVEAEDLGVYFCSQSTHVPWTFGGGTKLEIK [chain 1 M105A G109F] | ≥ 10 µM | 0.203 |
| chain 1 EVKLDETGGGLVQPGRPMKLSCVASGFTSSDYWSNWVRQSPEKGLEWVAQIRNKPYNYETYYSDSVKGRFTISRDDSKSSVYLQMNNLRVEDMGIYYCTGSYYGMDYWGQGTSVTVS chain 2 DVVMTQTPLSLPVSLGDQASISCRSSQSLVHSNGNTYLRWYLQKPGQSPKVLIYKVSNRFSGVPDRFSGSGSGTDFTLKISRVEAEDLGVYFCSQSTHVPWTFGGGTKLEIK [chain 1 F29S M34S] | ≥ 10 µM | 0.543 |
| chain 1 EVKLDETGGGLVQPGRPMKLSCVASGFTFSDYWMNWVRQSPEKGLEWVAQIRNKPYNYETYYSDSVKGRFTISRDDSKSSVYLQMNNLRVEDMGIYYCTMSYYGMDYWMQGTSVTVS chain 2 DVVMTQTPLSLPVSLGDQASISCRSSQSLVHSNGNTYLRWYLQKPGQSPKVLIYKVSNRFSGVPDRFSGSGSGTDFTLKISRVEAEDLGVYFCSQSTHVPWTFGGGTKLEIK [chain 1 G100M G109M] | ≥ 10 µM | 0.274 |
| chain 1 EVKLDETGGGLVQPGRPMKLSCVASGFTFKDYWMNWVRQSPEKGLEWVAQIRNKPYNYETYYSDSVKGRFTISRDDSKSSVYLQMNNLRVEDMGIYYCTGSYYGMDYWGQGTSVTVS chain 2 DVVMTQTPLSLPVSLGDQASISCRSSQSLVHSNGNTYLRWYLQKPGQSPKVLIYKVSNRFSGVPDRFSGSGSGTDFTLKISRVEAEDLGVYFCSQSTHVPWTFGGGTKLEIK [chain 1 S30K] | 0.00122 µM | 1.12 |
| chain 1 EVKLDETGGGLVQPGRPMKLSCVASGFTFSDYWMNWVRQSPEKGLEWVAQIRNKPYNYETYYSDSVKGRFTISRDDSKSSVYLQMNNLRVEDMGIYYCTGSKYGYDYWGQGTSVTVS chain 2 DVVMTQTPLSLPVSLGDQASISCRSSQSLVHSNGNTYLRWYLQKPGQSPKVLIYKVSNRFSGVPDRFSGSGSGTDFTLKISRVEAEDLGVYFCSQSTHVPWTFGGGTKLEIK [chain 1 Y102K M105Y] | 0.0125 µM | 0.955 |
| chain 1 EVKLDETGGGLVQPGRPMKLSCVASGFTYDDYWMNWVRQSPEKGLEWVAQIRNKPYNYETYYSDSVKGRFTISRDDSKSSVYLQMNNLRVEDMGIYYCTGSYYGMDYWGQGTSVTVS chain 2 DVVMTQTPLSLPVSLGDQASISCRSSQSLVHSNGNTYLRWYLQKPGQSPKVLIYKVSNRFSGVPDRFSGSGSGTDFTLKISRVEAEDLGVYFCSQSTHVPWTFGGGTKLEIK [chain 1 F29Y S30D] | 0.0038 µM | 0.937 |
| chain 1 EVKLDETGGGLVQPGRPMKLSCVASGFTFSDYWMNWVRQSPEKGLEWVAQIRNKPYNYETYYSDSVKGRFTISRDDSKSSVYLQMNNLRVEDMGIYYCTGSYLGMDYWIQGTSVTVS chain 2 DVVMTQTPLSLPVSLGDQASISCRSSQSLVHSNGNTYLRWYLQKPGQSPKVLIYKVSNRFSGVPDRFSGSGSGTDFTLKISRVEAEDLGVYFCSQSTHVPWTFGGGTKLEIK [chain 1 Y103L G109I] | ≥ 10 µM | 0.206 |
| chain 1 EVKLDETGGGLVQPGRPMKLSCVASGFTFSDYWMNWVRQSPEKGLEWVAQIRNKPYNYETYYSDSVKGRFTISRDDSKSSVYLQMNNLRVEDMGIYYCTTSYYGMDYWKQGTSVTVS chain 2 DVVMTQTPLSLPVSLGDQASISCRSSQSLVHSNGNTYLRWYLQKPGQSPKVLIYKVSNRFSGVPDRFSGSGSGTDFTLKISRVEAEDLGVYFCSQSTHVPWTFGGGTKLEIK [chain 1 G100T G109K] | ≥ 10 µM | 0.433 |
| chain 1 EVKLDETGGGLVQPGRPMKLSCVASGFTFSDYWMNWVRQSPEKGLEWVAQIRNKPYNYETYYSDSVKGRFTISRDDSKSSVYLQMNNLRVEDMGIYYCTDWYYGMDYWGQGTSVTVS chain 2 DVVMTQTPLSLPVSLGDQASISCRSSQSLVHSNGNTYLRWYLQKPGQSPKVLIYKVSNRFSGVPDRFSGSGSGTDFTLKISRVEAEDLGVYFCSQSTHVPWTFGGGTKLEIK [chain 1 G100D S101W] | ≥ 10 µM | 0.171 |
| chain 1 EVKLDETGGGLVQPGRPMKLSCVASGFTFSDAITNWVRQSPEKGLEWVAQIRNKPYNYETYYSDSVKGRFTISRDDSKSSVYLQMNNLRVEDMGIYYCTGSYYGMDYWGQGTSVTVS chain 2 DVVMTQTPLSLPVSLGDQASISCRSSQSLVHSNGNTYLRWYLQKPGQSPKVLIYKVSNRFSGVPDRFSGSGSGTDFTLKISRVEAEDLGVYFCSQSTHVPWTFGGGTKLEIK [chain 1 Y32A W33I M34T] | ≥ 10 µM | 0.444 |

From the FLAb antibody collection (doi:10.7554/elife.23156)
